How the values were obtained:
[1] = molecular target: T1, MET567 (human, UniProt P08581 25-567); experiment: SPR
[2] = molecular target: T1, MET567; experiment: SEC-SAXS

T1 sequence (P08581 25-567): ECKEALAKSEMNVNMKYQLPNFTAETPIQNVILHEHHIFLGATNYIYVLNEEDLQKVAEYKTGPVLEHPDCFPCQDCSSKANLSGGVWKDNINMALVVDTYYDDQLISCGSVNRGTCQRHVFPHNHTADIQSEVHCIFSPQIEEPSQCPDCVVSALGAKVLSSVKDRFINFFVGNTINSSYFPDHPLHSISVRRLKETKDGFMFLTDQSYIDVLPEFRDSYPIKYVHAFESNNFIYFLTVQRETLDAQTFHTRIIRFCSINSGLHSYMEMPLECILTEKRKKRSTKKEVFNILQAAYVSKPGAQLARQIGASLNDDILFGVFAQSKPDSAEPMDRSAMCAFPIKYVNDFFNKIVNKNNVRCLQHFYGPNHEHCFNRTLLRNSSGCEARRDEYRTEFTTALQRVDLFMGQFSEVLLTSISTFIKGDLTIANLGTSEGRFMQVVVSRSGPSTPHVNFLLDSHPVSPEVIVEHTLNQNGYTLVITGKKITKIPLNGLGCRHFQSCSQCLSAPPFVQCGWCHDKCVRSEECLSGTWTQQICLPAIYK

Molecule: K1K1 (from UniProt P14210 128-206) (ligand)
- Kd [1]: 205 nM
- stoichiometry N [2]: 1 K1K1:MET567

B1: NK1 (domain or fragment, human, UniProt P14210 28-209, looked up)
chain: YAEGQRKRRNTIHEFKKSAKTTLIKIDPALKIKTKKVNTADQCANRCTRNKGLPFTCKAFVFDKARKQCLWFPFNSMSSGVKKEFGHEFDLYENKDYIRNCIIGKGRSYKGTVSITKSGIKCQPWSSMIPHEHSFLPSSYRGKDLQENYCRNPRGEEGGPWCFTSNPEVRYEVCDIPQCSEV
- Kd [1]: 200 nM

From paper doi:10.1101/2020.07.20.212654 (bioRxiv, 2020)
